Conditions: Bacillus amyloliquefaciens, 20 °C, Urea, Fluorescence, whole UniProt chain shown
[1] = pH 2.76, diglycine 30 mM, NaCl 0.5 M
[2] = pH 2.82, diglycine 30 mM, NaCl 0.1 M

B1: Ribonuclease wild type, P00648 (protein)
chain: MMKMEGIALKKRLSWISVCLLVLVSAAGMLFSTAAKTETSSHKAHTEAQVINTFDGVADYLQTYHKLPDNYITKSEAQALGWVASKGNLADVAPGKSIGGDIFSNREGKLPGKSGRTWREADINYTSGFRNSDRILYSSDWLIYKTTDHYQTFTKIR
pH 2.5, diglycine 100 mM
  denaturant m value: 3.22 kcal/mol/M
  denaturant midpoint (higher = more stable): 0.52 M
  unfolding free energy: 1.66 kcal/mol
[1]
  denaturant m value: 2.62 kcal/mol/M
  denaturant midpoint (higher = more stable): 1.61 M
  unfolding free energy: 4.2 kcal/mol
[2]
  denaturant m value: 2.97 kcal/mol/M
  denaturant midpoint (higher = more stable): 1.21 M
  unfolding free energy: 3.58 kcal/mol
pH 2.87, diglycine 30 mM
  denaturant m value: 3.19 kcal/mol/M
  denaturant midpoint (higher = more stable): 1.14 M
  unfolding free energy: 3.63 kcal/mol
pH 2.98, diglycine 100 mM
  denaturant m value: 3.28 kcal/mol/M
  denaturant midpoint (higher = more stable): 1.39 M
  unfolding free energy: 4.55 kcal/mol

From FireProtDB (doi:10.1021/bi00125a013)
